This passage reports stoichiometry N results from paper doi:10.1101/2022.05.18.492403.

In the assay the target is recombinant C-terminal StrepII-tagged SbtB from Synechocystis sp. PCC 6803 (ScSbtB), wildtype (Synechocystis sp. PCC 6803), P73954. Kind of assay: crystal structure. To be noted: remark: other sources report otherwise.

B1: recombinant C-terminal StrepII-tagged SbtB from Synechocystis sp. PCC 6803 (ScSbtB), wildtype, P73954 1-110 (natural protein)
chain: MAKPANKLVIVTEKILLKKIAKIIDESGAKGYTVMNTGGKGSRNVRSSGQPNTSDIEANIKFEILTETREMAEEIADRVAVKYFNDYAGIIYICSAEVLYGHTFCGPEGC
One may read the stoichiometry N as the number of molecules, sites or subunits per partner or assembly. As for B1, the stoichiometry N was found to be 3.
